# From paper PMC12268258
# pKd: −log10 of the molar value. Read-outs that look alike come from different tables or passages of the source.
# How the values were obtained:
# Assay in all cases: BLI
# [1] = biological target: HB125scFv-2 D33H/E56H
# [2] = biological target: HB125scFv-2 D33H
# [3] = biological target: HB125scFv-2 E56H
# [4] = biological target: HB125scFv-2 N54H
# [5] = biological target: HB125scFv-2 T32H
# [6] = biological target: HB125scFv-2 Y242H
# [7] = biological target: HB125scFv-2 D33H/E56H; remark: listed apart in the source
# [8] = biological target: HB125scFv-2 D33H; remark: listed apart in the source
# [9] = biological target: HB125scFv-2 E56H; remark: listed apart in the source
# [10] = biological target: HB125scFv-2 N54H; remark: listed apart in the source
# [11] = biological target: HB125scFv-2 T32H; remark: listed apart in the source
# [12] = biological target: HB125scFv-2 Y242H; remark: listed apart in the source
# [13] = biological target: HB125scFv-2 T32H; remark: listed apart in the source
substance,measurement,setting,value
human insulin (from UniProt P01308 90-110; P01308 25-54) (natural protein),pKd,[1],6.60
same,koff,[1],0.00557 s⁻¹
same,kon,[1],23700 M⁻¹ s⁻¹
same,pKd,[2],7.44
same,koff,[2],0.00176 s⁻¹
same,kon,[2],60500 M⁻¹ s⁻¹
same,pKd,[3],6.79
same,koff,[3],0.0058 s⁻¹
same,kon,[3],43400 M⁻¹ s⁻¹
same,pKd,[4],6.78
same,koff,[4],0.00341 s⁻¹
same,kon,[4],26000 M⁻¹ s⁻¹
same,pKd,[5],7.76
same,koff,[5],0.00166 s⁻¹
same,kon,[5],89700 M⁻¹ s⁻¹
same,pKd,[6],6.32
same,koff,[6],0.00854 s⁻¹
same,kon,[6],18800 M⁻¹ s⁻¹
same,pKd,[7],6.37
same,koff,[7],0.0073 s⁻¹
same,kon,[7],19100 M⁻¹ s⁻¹
same,pKd,[8],7.29
same,koff,[8],0.00154 s⁻¹
same,kon,[8],27800 M⁻¹ s⁻¹
same,pKd,[9],6.26
same,koff,[9],0.00577 s⁻¹
same,kon,[9],12700 M⁻¹ s⁻¹
same,pKd,[10],6.69
same,koff,[10],0.00286 s⁻¹
same,kon,[10],15700 M⁻¹ s⁻¹
same,pKd,[11],6.84
same,koff,[11],0.00351 s⁻¹
same,kon,[11],42900 M⁻¹ s⁻¹
same,"percent change of wavelength shift, association 0.5 μM → 1 μM",[11],57%
same,"percent change of wavelength shift, association 1 μM → 0.5 μM",[11],23%
same,"percent change of wavelength shift, association 1 μM → 2 μM",[11],49%
same,"percent change of wavelength shift, association 2 μM → 1 μM",[11],21%
same,"percent change of wavelength shift, average association",[11],37%
same,"percent change of wavelength shift, average dissociation",[11],-21%
same,"percent change of wavelength shift, dissociation 0.5 μM → 0 μM (first)",[11],-22%
same,"percent change of wavelength shift, dissociation 0.5 μM → 0 μM (second)",[11],-17%
same,"percent change of wavelength shift, dissociation 1 μM → 0 μM (first)",[11],-23%
same,"percent change of wavelength shift, dissociation 1 μM → 0 μM (second)",[11],-22%
same,"percent change of wavelength shift, dissociation 2 μM → 0 μM",[11],-20%
same,pKd,[12],5.83
same,koff,[12],0.012 s⁻¹
same,kon,[12],8040 M⁻¹ s⁻¹
same,"percent change of wavelength shift, association 0.5 μM → 1 μM",[13],31%
same,"percent change of wavelength shift, association 1 μM → 0.5 μM",[13],15%
same,"percent change of wavelength shift, association 1 μM → 2 μM",[13],39%
same,"percent change of wavelength shift, association 2 μM → 1 μM",[13],20%
same,"percent change of wavelength shift, average association",[13],26%
same,"percent change of wavelength shift, average dissociation",[13],-17%
same,"percent change of wavelength shift, dissociation 0.5 μM → 0 μM (first)",[13],-18%
same,"percent change of wavelength shift, dissociation 0.5 μM → 0 μM (second)",[13],-11%
same,"percent change of wavelength shift, dissociation 1 μM → 0 μM (first)",[13],-15%
same,"percent change of wavelength shift, dissociation 1 μM → 0 μM (second)",[13],-18%
same,"percent change of wavelength shift, dissociation 2 μM → 0 μM",[13],-21%
